In patent US20210300974, “ARTIFICIAL TRANSCRIPTION FACTORS COMPRISING A SLIDING DOMAIN AND USES THEREOF” (THE BROAD INSTITUTE, INC., published 2021):
Primed or numbered codes have the meaning given here. Ends that are not written are not given here. TMR(3) = tetramethylrhodamine (TMR) label conjugated to the Cys side chain

T1: TMR-(CH2)5-KRRR-NH2 (synthetic)
T1 sequence: KRRR

T2: TMR-(RL)4-NH2 (synthetic)
T2 sequence: RRRR

T3: TMR-KKKK-NH2 (synthetic)
T3 sequence: KKKK

T4: TMR-KRRR (C-terminal carboxylate) (synthetic)
T4 sequence: KRRR

T5: TMR-KRRR-NH2 (synthetic)
T5 sequence: KRRR

T6: TMR-RRRK-NH2 (synthetic)
T6 sequence: RRRK

T7: TMR-RRRR (C-terminal carboxylate) (synthetic)
T7 sequence: RRRR

T8: TMR-RRRR-NH2 (synthetic)
T8 sequence: RRRR

T9: TMR-beta3(KRRR)-NH2 (synthetic)
T9 sequence: KRRR

T10: TMR-beta3(RRRK)-NH2 (synthetic)
T10 sequence: RRRK

T11: KRRRC(-TMR)-NH2 (synthetic)
T11 chain: KRRRC(TMR(3))-NH2

B1: 30-mer dsDNA (dsDNA)
DNA 1: GACGACTAGGACGACGACGAGGATGACGAC
DNA 2: GTCGTCATCCTCGTCGTCGTCCTAGTCGTC

What was measured:
[1] = system: T1, TMR-(CH2)5-KRRR-NH2 (synthetic); test: FP; conditions: 2 mM NaCl, pH 7.4
[2] = system: T2, TMR-(RL)4-NH2 (synthetic); test: FP; conditions: 2 mM NaCl, pH 7.4
[3] = system: TMR-(RS)4-NH2 (synthetic); test: FP; conditions: 2 mM NaCl, pH 7.4
[4] = system: T3, TMR-KKKK-NH2 (synthetic); test: FP; conditions: 2 mM NaCl, pH 7.4
[5] = system: T4, TMR-KRRR (C-terminal carboxylate) (synthetic); test: FP; conditions: CITED (Xiong et al); pH 7.4; cited from earlier work
[6] = system: T5, TMR-KRRR-NH2 (synthetic); test: FP; conditions: 2 mM NaCl, pH 7.4
[7] = system: T6, TMR-RRRK-NH2 (synthetic); test: FP; conditions: 2 mM NaCl, pH 7.4
[8] = system: T7, TMR-RRRR (C-terminal carboxylate) (synthetic); test: FP; conditions: CITED (Xiong et al); pH 7.4; cited from earlier work
[9] = system: T8, TMR-RRRR-NH2 (synthetic); test: FP; conditions: 2 mM NaCl, pH 7.4
[10] = system: T9, TMR-beta3(KRRR)-NH2 (synthetic); test: FP; conditions: 2 mM NaCl, pH 7.4
[11] = system: T10, TMR-beta3(RRRK)-NH2 (synthetic); test: FP; conditions: 2 mM NaCl, pH 7.4
[12] = biological target: T11, KRRRC(-TMR)-NH2; test: FP; 2 mM NaCl, pH 7.4; text p253 states 46 ± 9; conditions: tags: TMR on Cys; free N-terminal amine; C-terminal amide

Row | Molecule | Kd [1] | Kd [2] | Kd [3] | Kd [4] | Kd [5] | Kd [6] | Kd [7] | Kd [8] | Kd [9] | Kd [10] | Kd [11] | Kd [12]
1 | GACGACTAGGACGACGACGAGGATGACGAC (double strand) [30-mer dsDNA] | 46 nM | 13 nM | 129 nM | 53 nM | 197 nM | 46 nM | 28 nM | 236 nM | 31 nM | 41 nM | 49 nM | –
2 | B1 | – | – | – | – | – | – | – | – | – | – | – | 54 nM
